Test results taken from the supplement of paper PMC10567573.
± gives the standard deviation.

Assay: protein stability index of a GFP-peptide fusion (GPS, HEK-293T) (PSI 1-6); higher = more stable
Details: c terminus: a fixed tail appended
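Note: 24-mer peptide tiles fused after GFP, lentivirally expressed, FACS-sorted into six equal bins by GFP/DsRed ratio, decoded by Illumina sequencing, PSI is the read-weighted mean bin number.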

Row | Sequence | protein stability index (treatment: DMSO) | protein stability index (treatment: MLN4924 1 uM, 8 h)
1 | RRDAETWFLSKTEELNKEVASNSE [KRT16] | 5.09 ± 0.35 | 5.19 ± 0.12
2 | VISCEFAHNSNWYITFQSDTDAQQ [LARP4] | 2.47 ± 0.23 | 2.56 ± 0.19
3 | NPELIKPKKLLNPVKASRSHQELH [FAM107A] | 4.21 ± 0.16 | 4.24 ± 0.26
4 | KSEYMEIEEDMNNSIAHYRQVNIR [KCNA1] | 3.34 ± 0.2 | 3.57 ± 0.53
5 | SGRNGEVSLDISPDLPFQIKPSEN [PCDHGC5] | 4.47 ± 0.25 | 4.56 ± 0.26
6 | AEITQIQSHISDMSVILSMDNNRN [KRT71] | 3.73 ± 0.16 | 3.7 ± 0.14
7 | LKKHGPICQKTATKKRKTFDSSRQ [ZC2HC1A] | 4.09 ± 0.26 | 4.13 ± 0.38
8 | KSKKYSDVEVPASVTGYSFASDGD [ADD1] | 4.68 ± 0.38 | 4.82 ± 0.22
9 | FQTLMFLVRDWSFPYEYSYGLQGG [ATL3] | 3.88 ± 1 | 3.15 ± 0.28
10 | PKTSGTRATSLGRPEEEEDELAHR [CPOX] | 5.42 ± 0.36 | 5.42 ± 0.19
11 | WLLLLTRGLVGVGEASYSTIAPTL [SPNS1] | 2.67 ± 0.44 | 2.83 ± 0.32
12 | SKCKIIHTDIKPENILMCVDDAYV [SRPK2] | 2.39 ± 0.33 | 2.5 ± 0.17
13 | EEETQFYISETVLAIDAIHQLGFI [STK38L] | 2.48 ± 0.51 | 2.58 ± 0.2
14 | SRKSSIPNNKEIPSHHPTDPVELR [PTPRD] | 4.83 ± 0.1 | 5.04 ± 0.35
15 | RSTNLLAAETASLEEQLQGWGEVM [ARL6IP1] | 3.85 ± 0.32 | 4.15 ± 0.23
16 | QVPRSPVIKISYSTPQGKGEVVKI [PWWP2B] | 2.73 ± 0.26 | 2.58 ± 0.26
17 | SKDWVFLNYTYKRFEGLTQRGSIP [STK38L] | 2.54 ± 0.78 | 2.48 ± 1
18 | GEPRKLLTQDWVQENYLEYRQVPG [MAGEA10] | 3.62 ± 0.17 | 4.15 ± 0.3
19 | MCFGPKKVKPAEAETAGAIMAFFL [SLC29A1] | 2.42 ± 0.45 | 2.13 ± 0.21
20 | MNTNSKEVLSLGVQVPEAWEELLT [ZSCAN9] | 3.08 ± 0.47 | 3.52 ± 0.34
21 | EHIADALRAIDFGTDEEEEEFIEE [TRIM63] | 5.34 ± 0.2 | 5.36 ± 0.32
22 | QHESGQSSSRGSSHCDSPSPQEDG [BNIP3L] | 5.62 ± 0.36 | 5.5 ± 0.16
23 | LENREEPWVKELQDSKEMKQLLDS [ZNF449] | 5.49 ± 0.18 | 5.36 ± 0.23

Row | Sequence | protein stability index (treatment: DMSO) | protein stability index (treatment: MLN4924 1 uM, 8 h)
24 | ERVEALGQFVMKTRRTLKGHGNKV [GNB5] | 3.09 ± 0.7 | 3.52 ± 0.14
25 | SAGGHGGLLNDTSAPHLENSGHTI [KCNA4] | 4.21 ± 0.46 | 4.48 ± 0.2
26 | DVNDNSPELTITSLFSPVTEDSPL [PCDHGA10] | 4.53 ± 0.21 | 4.65 ± 0.36
27 | QDPEGKGEQEHSQQKEEEEEMAVV [CHGA] | 5.43 ± 0.34 | 5.69 ± 0.13
28 | SFACQCPEGHVLRSDGKTCAKLDS [MATN2] | 4.41 ± 0.39 | 4.88 ± 0.27
29 | DQLLLNYAKKESDLNGAQIKLREY [LMNB1] | 3.617 ± 0.031 | 3.71 ± 0.1
30 | ATYCVRTFALYKNGSSEKREVRQF [PTPRD] | 2.44 ± 0.4 | 2.35 ± 0.39
31 | TRLFHDSAVTSVRILQDEQYLMAS [DCAF4] | 2.76 ± 0.18 | 2.88 ± 0.25
32 | AISLSTGRESYIPGICVARVYHGW [SLA] | 2.92 ± 0.85 | 2.48 ± 0.92
33 | EEENDYRNLDASPTYKGLLMSLQN [CEP70] | 3.67 ± 0.18 | 3.63 ± 0.34
34 | AMQASKATKITLSAIYKWITDNFC [FOXJ1] | 2.28 ± 0.27 | 2.14 ± 0.23
35 | PQLAGKWQVLCMLSLCCWGWVSGQ [PCDHGC5] | 2.88 ± 0.93 | 2.85 ± 0.43
36 | FPYVVLACFLVRGLLLRGAVDGIL [SLC6A17] | 2.8 ± 0.65 | 3.12 ± 1.1
37 | EQRADPNAKAHCGATALHFAAEAG [FEM1B] | 4.03 ± 0.18 | 3.98 ± 0.34
38 | HVGELIIWDALDWTMQAYERNFWD [WDR41] | 2.33 ± 0.26 | 2.25 ± 0.26
39 | ILGPAYFVTYVFFVFFVLLNMFLA [PKD2L1] | 2.88 ± 0.45 | 3.22 ± 0.3
40 | EDWDSALFAELGYFTDTDELQLEA [ATF6] | 4.3 ± 0.21 | 4.65 ± 0.23
41 | EESRDPTLYANNVQRVMAQALGIP [LPCAT4] | 3.71 ± 0.39 | 3.89 ± 0.33
42 | KYESVLQLGRALTAHLYSLLQTQH [ARFIP2] | 3.09 ± 0.24 | 2.85 ± 0.092
43 | SSMLTGILWDTLLRLCAWGLASWP [POMT2] | 3.12 ± 0.62 | 2.66 ± 0.61
44 | SHKRKRSSGSFCYCHPDSETDEDE [GMCL1] | 5.21 ± 0.4 | 5.34 ± 0.2
45 | DAVQTSLMDEGASSEKKRQSSADG [RBBP5] | 5.49 ± 0.26 | 5.48 ± 0.19
